Source: patent publication US20210380714A1

Experiments:
[1] = target: native human MSLN expressed on the cell surface (N87 / NCI-N87 tumor cells) (human) (UniProt Q13421); experiment: KinExA on N87 cells compared with Biacore on rHuMSLN sol.
[2] = target: recombinant human soluble MSLN (rHuMSLN sol.) (human) (UniProt Q13421); experiment: Biacore; 237 captured on the sensor chip, rHuMSLN sol. in solution
[3] = target: native human MSLN expressed on the cell surface (N87 / NCI-N87 tumor cells) (human) (UniProt Q13421); experiment: KinExA equilibrium binding to N87 tumor cells expressing native human MSLN
[4] = target: recombinant human soluble MSLN (rHuMSLN sol.) (human) (UniProt Q13421); experiment: Biacore, soluble human MSLN
[5] = target: native human MSLN expressed on the cell surface (N87 / NCI-N87 tumor cells) (human) (UniProt Q13421); experiment: KinExA, native hu MSLN on cells

recombinant human soluble MSLN (rHuMSLN sol.) (human), sequence (Q13421 296-606 limits assumed): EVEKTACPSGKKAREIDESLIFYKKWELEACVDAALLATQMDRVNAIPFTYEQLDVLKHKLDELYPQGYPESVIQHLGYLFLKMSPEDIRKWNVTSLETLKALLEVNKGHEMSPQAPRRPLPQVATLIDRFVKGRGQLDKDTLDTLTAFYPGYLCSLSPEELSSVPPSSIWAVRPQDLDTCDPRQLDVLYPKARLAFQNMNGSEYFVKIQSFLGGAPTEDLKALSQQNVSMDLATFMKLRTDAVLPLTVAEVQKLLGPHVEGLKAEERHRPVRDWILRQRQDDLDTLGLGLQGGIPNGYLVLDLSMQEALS
native human MSLN expressed on the cell surface (N87 / NCI-N87 tumor cells) (human), sequence (Q13421 296-606 limits assumed): as above

| fold better binding than to soluble MSLN [1] | Kd [2] | Kd [3] | Kd [4] | Kd [5] | Binder |
| --- | --- | --- | --- | --- | --- |
| 30 fold | 97 pM | 3.5 pM | – | – | Ab237 (Hu-anti-huMesothelin-2.37-IgG1) (antibody, V domains shown) VH: QVQLQESGPGLVKPSQTLSLTCTVSGGSINNNNYYWTWIRQHPGKGLEWIGYIYYSGSTFYNPSLKSRVTISVDTSKTQFSLKLSSVTAADTAVYYCAREDTMTGLDVWGQGTTVTVSS VL: DIQMTQSPSSLSASVGDRVTITCRASQSINNYLNWYQQKPGKAPTLLIYAASSLQSGVPSRFSGSRSGTDFTLTISSLQPEDFAAYFCQQTYSNPTFGQGTKVEVK |
| – | – | – | 2400 pM | 12.2 pM | 158.3 (antibody, V domains shown) VH: QVQLQESGPGLVKPSETLSLTCTVSGGSIISHYWSWIRQPPGKGLEWIGYIYYSGSTNYNPSLKSRVTISVDTSKNQFSLKLTSVTAADTAVYYCARDGWSAFDYWGQGTLVTVSS VL: DIQMTQSPSSLSASVGDRVTITCRASQGIRNALGWYQQKPGKAPKRLIYAASSLQSGVPSRFSGSGSGTEFTLTISSLQPEDFATYYCLQHNSYPRTFGQGTKVEIRR |
| – | – | – | 17400 pM | 30 pM | 151 (antibody, V domains shown) VH: QVQLQESGPGLVKPSETLSLTCTVSGGSISSYYWSWIRQPPGKGLEWIGYIYYSGSTNYNPSLKSRVTISVDTSKNQFSLKLSSVTAADTAVYYCARVDYKAFDIWGQGTMVTVSS VL: DIQMTQSPSSLSASVGDRVTITCRASQGIRNDLHWYQQKPGKAPKRLIYAASSLQSGVPSRFSGSGSGTEFTLTISSLQPEDFATYYCLQHYSYPWTFGQGTKVEIK |
| – | – | – | 965 pM | – | 1.33.1 (antibody, V domains shown) VH: QVQLQESGPGLVKPSQTLSLTCTVSGGSISGDGHFWSWIRQHPGKGLEWIGYIYYSGSTYYNPSLKSRVTISVDTSKNQFSLKLSSVTAADTAVYYCARLRGGYKFDYWGQGTLVTVSS VL: DIVMTQTPLSLSVAPGQPASISCQSSLSLQHSNGKTYLYWYLQKPGQPPQLLIYEVSNRFSGVPDRFSGSGSGTDFTLKISRVEAEDVGIYYCMQSKQLPCSFGQGTKLEIK |
